{"source": "paper PMC3946040", "key": {"[1]": {"molecular_target": "AspBHI, modification-dependent restriction endonuclease from Azoarcus sp. BH72 (Azoarcus sp. BH72)", "assay": "SEC"}, "[2]": {"molecular_target": "AspBHI, modification-dependent restriction endonuclease from Azoarcus sp. BH72 (Azoarcus sp. BH72)", "assay": "crystal structure"}}}
{"substance": "AspBHI, modification-dependent restriction endonuclease from Azoarcus sp. BH72 (enzyme)", "values": [{"measurement": "stoichiometry N", "setting": "[1]", "value": 4}, {"measurement": "stoichiometry N", "setting": "[2]", "value": 4}]}
